Positions count from the first letter of the chain named. Numbers in names are those of the source.
Experiments:
[1] = target: T1, FcγRIIb extracellular domain with C-terminal His tag (human, UniProt P31994 43-217); assay: SPR (Biacore): antibody captured on the chip, FcγRIIb as analyte; amount bound per amount captured, relative to GpH7-B3/GpL16-k0 = 100
T1 construct: extracellular domain; also called FcgRIIb; FcγRIIb extracellular region; not shown: His tag at the C terminus
T1 sequence (looked up): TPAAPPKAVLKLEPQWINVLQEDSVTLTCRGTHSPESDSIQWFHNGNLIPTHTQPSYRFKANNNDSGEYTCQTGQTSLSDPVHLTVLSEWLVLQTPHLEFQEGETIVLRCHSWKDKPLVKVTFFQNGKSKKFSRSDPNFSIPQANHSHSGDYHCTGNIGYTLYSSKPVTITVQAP

[2] = target: T2, FcγRIIIa type V extracellular domain with C-terminal His tag (human, UniProt P08637 17-208); assay: SPR (Biacore), antibody captured, FcγR analyte
T2 construct: extracellular domain; also called FcγRIIIaV; FcgRIIIaV; not shown: His tag at the C terminus
From the text: (§1) Furthermore, KD(IIaR)/KD(IIb) and KD(IIaH)/KD(IIb) in the table respectively show the value obtained by dividing the KD value of each variant for FcγRIIaR by the KD value of each variant for FcγRIIb, and the value obtained by dividing the KD value of each variant for FcγRIIaH by the KD value of each variant for FcγRIIb. KD(IIb) of the parent polypeptide/KD(IIb) of the altered polypeptide refers to a value obtained by dividing the KD value of the parent polypeptide for FcγRIIb by the KD value of each variant for FcγRIIb.
(§2) Kinetic analyses for calculating the KD values of each altered antibody for FcγR were performed according to the following method. First, antibodies of interest were captured onto the above-mentioned sensor chips, and an Fcγ receptor diluted with the running buffer was allowed to interact. The Biacore Evaluation Software was used to globally fit the measured results to the obtained sensorgram using the 1:1 Langmuir binding model, and the association rate constant ka (L/mol/s) and the dissociation rate constant kd (1/s) were calculated; and from those values the dissociation constants KD (mol/L) were calculated.
T2 sequence (P08637 17-208 F176V): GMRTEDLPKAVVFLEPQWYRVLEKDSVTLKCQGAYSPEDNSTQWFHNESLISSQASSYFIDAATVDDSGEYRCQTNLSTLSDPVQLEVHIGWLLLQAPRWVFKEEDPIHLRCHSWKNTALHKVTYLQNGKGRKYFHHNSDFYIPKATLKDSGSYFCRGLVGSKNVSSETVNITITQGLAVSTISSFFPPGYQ

[3] = target: T3, FcγRIIa type R extracellular domain with C-terminal His tag (human, UniProt P12318 34-217); assay: SPR (Biacore), antibody captured, FcγR analyte
T3 chain: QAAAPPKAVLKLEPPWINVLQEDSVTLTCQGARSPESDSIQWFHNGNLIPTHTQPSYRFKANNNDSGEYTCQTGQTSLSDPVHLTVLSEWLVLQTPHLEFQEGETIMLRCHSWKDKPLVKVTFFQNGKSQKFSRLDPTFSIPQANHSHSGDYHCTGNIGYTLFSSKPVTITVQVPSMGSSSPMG
From the text: as §1, §2

[4] = target: T4, FcγRIIb extracellular domain, C-terminal His tag (human, UniProt P31994 43-217); assay: SPR (Biacore), antibody captured, FcγR as analyte
T4 construct: extracellular domain; also called FcgRIIb; CD32B; not shown: His tag at the C terminus
T4 sequence (looked up): T1 sequence (looked up)
From the text: as §1, with “respectively represent” for “respectively show”, “to the” for “to a”
as §2

[5] = target: T5, FcγRIIa type R extracellular domain, C-terminal His tag (human, UniProt P12318 34-217); assay: SPR (Biacore), antibody captured, FcγR as analyte
T5 construct: extracellular domain; also called FcgRIIaR; FcγRIIaR; not shown: His tag at the C terminus
T5 sequence (looked up): T3 chain
From the text: as §1, with “respectively represent” for “respectively show”, “to the” for “to a”
as §2

[6] = target: T6, FcγRIIa type R extracellular domain with C-terminal His tag (human, UniProt P12318 34-217); assay: SPR (Biacore)
T6 construct: extracellular domain; also called FcgRIIaR; FcγRIIaR
T6 sequence (looked up): T3 chain
From the text: (§3) IL6R-L was utilized as the common antibody L chain for all of the antibodies, the antibodies were expressed and purified according to the method of Reference Example 1, and binding to each of the FcγRs (FcγRIa, FcγRIIa H type, FcγRIIa R type, FcγRIIb, and FcγRIIIa V type) was comprehensively evaluated by the method of Reference Example 2.
as §1, with “respectively represent” for “respectively show”, “to the” for “to a”

[7] = target: T7, FcγRIIIa type V extracellular domain with C-terminal His tag (human, UniProt P08637 17-208); assay: SPR (Biacore)
T7 construct: extracellular domain; also called FcgRIIIaV; FcγRIIIaV
From the text: as §3
as §1, with “respectively represent” for “respectively show”, “to the” for “to a”
T7 sequence (P08637 17-208 F176V): as the sequence (P08637 17-208 F176V) above

[8] = target: T8, FcγRIIa type H extracellular domain with C-terminal His tag (human, UniProt P12318 34-217); assay: SPR (Biacore)
T8 construct: extracellular domain; also called FcgRIIaH; FcγRIIaH
T8 sequence (looked up): T3 chain with R134H
From the text: as §3
as §1, with “respectively represent” for “respectively show”, “to the” for “to a”

B1: G237A (antibody, human IgG1, kappa)
heavy chain: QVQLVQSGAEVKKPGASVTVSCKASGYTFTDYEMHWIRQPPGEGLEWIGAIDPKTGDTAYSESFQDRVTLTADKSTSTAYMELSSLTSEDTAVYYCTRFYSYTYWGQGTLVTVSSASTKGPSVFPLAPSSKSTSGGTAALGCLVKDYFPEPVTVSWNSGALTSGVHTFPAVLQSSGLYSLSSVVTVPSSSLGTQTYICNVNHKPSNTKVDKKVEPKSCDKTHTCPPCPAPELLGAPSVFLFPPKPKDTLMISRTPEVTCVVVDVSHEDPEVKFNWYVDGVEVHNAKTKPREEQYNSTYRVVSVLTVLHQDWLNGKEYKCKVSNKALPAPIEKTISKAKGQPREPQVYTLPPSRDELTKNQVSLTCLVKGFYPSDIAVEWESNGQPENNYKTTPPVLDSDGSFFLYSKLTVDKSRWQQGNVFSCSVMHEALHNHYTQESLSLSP
light chain: DIVMTQSPLSLPVTPGEPASISCQASESLVHSNRNTYLHWYLQKPGQSPQLLIYKVSNRFSGVPDRFSGSGSGTDFTLKISRVEAEDVGVYYCSQNTHVPPTFGQGTKVEIERTVAAPSVFIFPPSDEQLKSGTASVVCLLNNFYPREAKVQWKVDNALQSGNSQESVTEQDSKDSTYSLSSTLTLSKADYEKHKVYACEVTHQGLSSPVTKSFNRGEC
notes: Named on the sheet only by its alteration; also called B3 variant of GpH7-B3/GpL16-k0 with G237A (no P238D)
binding result [1]: binds

B2: L234W (antibody, human IgG1, kappa)
heavy chain: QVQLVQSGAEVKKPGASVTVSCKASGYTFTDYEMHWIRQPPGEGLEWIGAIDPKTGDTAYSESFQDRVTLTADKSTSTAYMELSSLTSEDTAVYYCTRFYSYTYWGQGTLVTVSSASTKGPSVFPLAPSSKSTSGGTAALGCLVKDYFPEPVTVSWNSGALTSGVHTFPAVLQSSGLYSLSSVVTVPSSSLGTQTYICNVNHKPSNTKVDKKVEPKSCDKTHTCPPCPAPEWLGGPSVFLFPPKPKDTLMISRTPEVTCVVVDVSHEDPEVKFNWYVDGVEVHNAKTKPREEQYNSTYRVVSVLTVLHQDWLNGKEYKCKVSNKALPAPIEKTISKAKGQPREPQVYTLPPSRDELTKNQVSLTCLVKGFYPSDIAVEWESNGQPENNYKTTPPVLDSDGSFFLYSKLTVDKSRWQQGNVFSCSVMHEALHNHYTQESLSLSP
light chain: B1 light chain
notes: Named on the sheet only by its alteration; also called B3 variant of GpH7-B3/GpL16-k0 with L234W (no P238D)
binding result [1]: binds

B3: G237E (antibody, human IgG1, kappa)
heavy chain: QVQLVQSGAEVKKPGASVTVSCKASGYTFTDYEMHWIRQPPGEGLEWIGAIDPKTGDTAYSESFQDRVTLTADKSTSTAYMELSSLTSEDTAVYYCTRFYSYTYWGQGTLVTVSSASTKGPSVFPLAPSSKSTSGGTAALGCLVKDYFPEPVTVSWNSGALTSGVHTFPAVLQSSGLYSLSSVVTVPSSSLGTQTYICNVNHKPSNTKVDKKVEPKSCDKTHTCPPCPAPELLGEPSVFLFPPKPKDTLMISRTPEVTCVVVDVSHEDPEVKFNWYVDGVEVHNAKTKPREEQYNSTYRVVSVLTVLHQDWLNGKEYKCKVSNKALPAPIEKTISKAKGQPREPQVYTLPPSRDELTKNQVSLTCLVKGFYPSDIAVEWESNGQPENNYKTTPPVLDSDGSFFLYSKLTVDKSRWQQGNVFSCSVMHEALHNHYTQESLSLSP
light chain: B1 light chain
notes: Named on the sheet only by its alteration; also called B3 variant of GpH7-B3/GpL16-k0 with G237E (no P238D)
binding result [1]: binds

B4: G237M (antibody, human IgG1, kappa)
heavy chain: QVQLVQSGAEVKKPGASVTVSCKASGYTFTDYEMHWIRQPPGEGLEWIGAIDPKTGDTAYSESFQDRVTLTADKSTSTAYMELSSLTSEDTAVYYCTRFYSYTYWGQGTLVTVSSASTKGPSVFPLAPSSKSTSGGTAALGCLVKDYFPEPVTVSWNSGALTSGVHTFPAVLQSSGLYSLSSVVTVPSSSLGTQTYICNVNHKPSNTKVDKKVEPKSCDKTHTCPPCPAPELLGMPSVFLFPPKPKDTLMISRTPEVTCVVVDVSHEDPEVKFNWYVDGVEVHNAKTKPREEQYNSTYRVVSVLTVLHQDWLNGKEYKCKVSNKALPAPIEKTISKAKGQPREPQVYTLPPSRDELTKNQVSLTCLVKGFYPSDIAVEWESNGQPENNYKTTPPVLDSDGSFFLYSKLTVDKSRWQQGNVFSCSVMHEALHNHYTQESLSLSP
light chain: B1 light chain
notes: Named on the sheet only by its alteration; also called B3 variant of GpH7-B3/GpL16-k0 with G237M (no P238D)
binding result [1]: binds

B5: G237L (antibody, human IgG1, kappa)
heavy chain: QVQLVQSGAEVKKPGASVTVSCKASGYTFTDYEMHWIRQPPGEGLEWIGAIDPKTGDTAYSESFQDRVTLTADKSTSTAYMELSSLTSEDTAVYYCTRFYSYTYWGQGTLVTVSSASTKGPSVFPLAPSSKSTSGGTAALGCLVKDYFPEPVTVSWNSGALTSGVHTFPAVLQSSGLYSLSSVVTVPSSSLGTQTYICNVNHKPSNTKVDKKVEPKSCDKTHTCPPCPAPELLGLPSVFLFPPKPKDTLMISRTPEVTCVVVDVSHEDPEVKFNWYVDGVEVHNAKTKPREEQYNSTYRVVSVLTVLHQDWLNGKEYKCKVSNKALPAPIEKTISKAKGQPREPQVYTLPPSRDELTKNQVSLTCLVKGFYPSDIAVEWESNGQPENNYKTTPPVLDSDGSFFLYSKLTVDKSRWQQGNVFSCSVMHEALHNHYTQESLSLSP
light chain: B1 light chain
notes: Named on the sheet only by its alteration; also called B3 variant of GpH7-B3/GpL16-k0 with G237L (no P238D)
binding result [1]: binds

B6: G237D (antibody, human IgG1, kappa)
heavy chain: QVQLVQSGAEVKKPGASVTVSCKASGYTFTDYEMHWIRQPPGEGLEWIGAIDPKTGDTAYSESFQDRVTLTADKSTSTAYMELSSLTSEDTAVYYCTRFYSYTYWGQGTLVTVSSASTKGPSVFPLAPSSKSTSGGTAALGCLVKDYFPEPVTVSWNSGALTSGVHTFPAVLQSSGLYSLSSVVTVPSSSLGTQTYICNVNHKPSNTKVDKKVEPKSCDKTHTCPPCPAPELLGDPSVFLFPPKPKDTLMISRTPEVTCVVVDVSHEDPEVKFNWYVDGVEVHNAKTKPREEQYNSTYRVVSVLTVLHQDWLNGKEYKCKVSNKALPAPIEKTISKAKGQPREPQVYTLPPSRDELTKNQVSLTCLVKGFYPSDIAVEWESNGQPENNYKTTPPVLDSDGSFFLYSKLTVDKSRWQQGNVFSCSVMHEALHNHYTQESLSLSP
light chain: B1 light chain
notes: Named on the sheet only by its alteration; also called B3 variant of GpH7-B3/GpL16-k0 with G237D (no P238D)
binding result [1]: binds

B7: G237Y (antibody, human IgG1, kappa)
heavy chain: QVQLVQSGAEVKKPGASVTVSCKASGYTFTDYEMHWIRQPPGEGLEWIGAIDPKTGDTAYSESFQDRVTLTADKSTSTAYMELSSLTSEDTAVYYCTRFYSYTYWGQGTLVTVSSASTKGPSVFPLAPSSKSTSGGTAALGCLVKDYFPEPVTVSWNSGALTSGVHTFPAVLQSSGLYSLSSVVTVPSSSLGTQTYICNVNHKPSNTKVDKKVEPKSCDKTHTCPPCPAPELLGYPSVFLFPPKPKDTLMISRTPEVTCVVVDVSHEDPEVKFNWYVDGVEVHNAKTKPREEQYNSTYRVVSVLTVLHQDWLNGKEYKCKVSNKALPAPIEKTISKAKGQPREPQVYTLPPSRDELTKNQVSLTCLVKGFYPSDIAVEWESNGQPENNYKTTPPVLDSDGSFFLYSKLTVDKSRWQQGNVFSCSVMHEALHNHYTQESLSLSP
light chain: B1 light chain
notes: Named on the sheet only by its alteration; also called B3 variant of GpH7-B3/GpL16-k0 with G237Y (no P238D)
binding result [1]: binds

B8: IL6R-PD043/IL6R-L (antibody, human IgG1, kappa)
heavy: QVQLQESGPGLVKPSETLSLTCAVSGHSISHDHAWSWVRQPPGEGLEWIGFISYSGITNYNPSLQGRVTISRDNSKNTLYLQMNSLRAEDTAVYYCARSLARTTAMDYWGEGTLVTVSSASTKGPSVFPLAPSSKSTSGGTAALGCLVKDYFPEPVTVSWNSGALTSGVHTFPAVLQSSGLYSLSSVVTVPSSSLGTQTYICNVNHKPSNTKVDKKVEPKSCDKTHTCPPCPAPEYLGGDSVFLFPPKPKDTLYISRTPEVTCVVVDVSHEDPEVKFNWYVDGVEVHNAKTKPREEQYNSTYRVVSVLTVLHQDWLNGKEYKCKVSNKALPAPIEKTISKAKGQPREPQVYTLPPSRDELTKNQVSLTCLVKGFYPSDIAVEWESNGQPENNYKTTPPVLDSDGSFFLYSKLTVDKSRWQQGNVFSCSVMHEALHYHYTQKSLSLSP
light: not shown
notes: IL6R-F11 with P238D/L234Y; copies: 2 + 2
Kd [2]: 45 µM
Kd [3]: 26 µM

B9: IL6R-BP120/IL6R-L (antibody, human IgG1, kappa)
heavy: B8 heavy with Y236L, Y254M, K328E, Y436N, K441E
light: not shown
notes: IgG1; P238D/K326E (EU numbering) introduced into IL6R-B3
Kd [4]: 1 µM
Kd [5]: 9.6 µM

B10: IL6R-BP102/IL6R-L (antibody, human IgG1, kappa)
heavy: B8 heavy with Y236L, Y254M, S269Q, Y436N, K441E
light: not shown
notes: IgG1; P238D/S267Q (EU numbering) introduced into IL6R-B3
Kd [4]: 0.9 µM
Kd [5]: 8.4 µM

B11: IL6R-2B253/IL6R-L (antibody, human IgG1, kappa)
heavy: B8 heavy with E235D, Y236L, Y254M, V325M, Y436N, K441E
light: not shown
notes: E233D/P238D/V323M (EU) in IL6R-B3; copies: 2 + 2
Kd [6]: 5 µM
Kd [7]: 50 µM

B12: IL6R-BP183/IL6R-L (antibody, human IgG1, kappa)
heavy: B8 heavy with E235D, Y254M, P273G, K328A, A332K, Y436N, K441E
light: not shown
notes: E233D/L234Y/P238D/P271G/K326A/A330K (EU) in IL6R-B3; copies: 2 + 2
Kd [6]: 2.6 µM
Kd [7]: 56 µM

B13: IL6R-BP184/IL6R-L (antibody, human IgG1, kappa)
heavy: B8 heavy with E235D, Y236L, Y254M, P273G, A332K, Y436N, K441E
light: not shown
notes: E233D/P238D/P271G/A330K (EU) in IL6R-B3; copies: 2 + 2
Kd [8]: 30 µM
Kd [6]: 2.3 µM
Kd [7]: 66 µM

— US20140093496A1 (Chugai, published 2014)
